In patent US20200079844A1 (Ablynx, published 2020):
Where two headings read alike, the source gives them in different places.

Assays:
human TNFα [1] = target: T1, human TNFα (human, UniProt P01375 77-233)
T1 construct: Biotinylated in the ELISAs, amine-coupled to CM5 in Biacore; also called human TNF-alpha; hTNF-alpha

human TNFα [2] = target: T1, human TNFα; assay: cell-based or functional assay
human TNFα [3] = target: T1, human TNFα; assay: cell-based or functional assay; remark: listed apart in the source
human TNFα [4] = target: T1, human TNFα; remark: listed apart in the source
human TNFα [5] = target: T1, human TNFα; remark: listed apart in the source
human TNFα [6] = target: T1, human TNFα; assay: ELISA on biotinylated human TNFα captured on neutravidin (as Example 10); untreated reference and mildly treated samples
human TNFα [7] = target: T1, human TNFα; assay: cell-based or functional assay; remark: listed apart in the source
rhesus TNFα = rhesus TNFα (rhesus, UniProt P48094 77-233); assay: cell-based or functional assay
human TNFα [8] = target: T1, human TNFα; assay: cell-based or functional assay; remark: listed apart in the source
human TNFα [9] = target: T1, human TNFα; assay: competition ELISA, biotinylated human TNFα pre-incubated with nanobody, binding to coated Enbrel; 50% inhibition
human serum albumin = target: T2, human serum albumin (human, UniProt P02768 25-609)
T2 construct: On the Biacore chip; also called human albumin

mouse serum albumin = target: T3, mouse serum albumin (mouse, UniProt P07724 25-608)
T3 construct: On the Biacore chip; also called mouse albumin

rhesus serum albumin = target: T4, rhesus serum albumin (rhesus, UniProt Q28522 17-600)
T4 construct: On the Biacore chip; also called rhesus albumin
T4 sequence (Q28522 17-600 limits assumed): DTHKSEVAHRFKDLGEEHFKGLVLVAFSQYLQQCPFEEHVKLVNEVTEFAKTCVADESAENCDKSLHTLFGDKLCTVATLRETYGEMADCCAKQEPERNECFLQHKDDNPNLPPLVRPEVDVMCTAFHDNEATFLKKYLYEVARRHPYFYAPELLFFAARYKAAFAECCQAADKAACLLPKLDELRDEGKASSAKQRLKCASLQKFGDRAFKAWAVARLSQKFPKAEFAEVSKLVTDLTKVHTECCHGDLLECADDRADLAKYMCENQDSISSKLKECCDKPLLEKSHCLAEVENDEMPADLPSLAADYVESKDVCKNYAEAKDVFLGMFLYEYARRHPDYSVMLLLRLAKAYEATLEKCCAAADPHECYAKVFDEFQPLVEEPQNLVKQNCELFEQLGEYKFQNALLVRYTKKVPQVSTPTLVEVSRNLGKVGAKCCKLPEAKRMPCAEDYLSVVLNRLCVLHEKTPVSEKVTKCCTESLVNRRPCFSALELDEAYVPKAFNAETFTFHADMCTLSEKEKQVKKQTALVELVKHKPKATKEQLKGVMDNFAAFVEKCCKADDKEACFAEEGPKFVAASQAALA

T1 sequence (P01375 77-233 limits assumed): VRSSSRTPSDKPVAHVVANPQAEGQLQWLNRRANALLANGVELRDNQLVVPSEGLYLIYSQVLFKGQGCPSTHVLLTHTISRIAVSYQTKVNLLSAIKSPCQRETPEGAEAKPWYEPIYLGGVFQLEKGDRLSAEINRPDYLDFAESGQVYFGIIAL
T3 sequence (P07724 25-608 limits assumed): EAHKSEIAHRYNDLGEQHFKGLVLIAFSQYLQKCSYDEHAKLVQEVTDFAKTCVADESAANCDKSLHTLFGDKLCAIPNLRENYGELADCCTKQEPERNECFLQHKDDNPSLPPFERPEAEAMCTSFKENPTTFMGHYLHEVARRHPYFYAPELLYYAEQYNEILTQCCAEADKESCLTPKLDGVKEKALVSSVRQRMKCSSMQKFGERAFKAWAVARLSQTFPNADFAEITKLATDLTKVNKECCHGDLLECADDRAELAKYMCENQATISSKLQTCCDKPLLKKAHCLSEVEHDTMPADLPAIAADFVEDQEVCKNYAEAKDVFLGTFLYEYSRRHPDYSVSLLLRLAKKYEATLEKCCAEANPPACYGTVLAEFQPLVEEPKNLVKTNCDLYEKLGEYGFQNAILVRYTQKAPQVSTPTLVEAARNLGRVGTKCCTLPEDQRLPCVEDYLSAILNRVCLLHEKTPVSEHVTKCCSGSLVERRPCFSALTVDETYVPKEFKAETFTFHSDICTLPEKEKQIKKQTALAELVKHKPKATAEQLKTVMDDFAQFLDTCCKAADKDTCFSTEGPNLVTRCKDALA
Sequence of rhesus TNFα (P48094 77-233 limits assumed): as the sequence (P01375 77-233 limits assumed) above, with R44T, T72N, R138L counted along it

B1: PMP1H2 (VHH)
VHH: QVKLEESGGGLVQPGDSLRLSCAASGRTFSDYSGYTYTVGWFRQAPGKEREFVARIYWSSGNTYYADSVKGRFTISRDIAKNTVDLLMNNLEPEDTAVYYCAARDGIPTSRSVESYNYWGQGTQVTVSS
notes: Tested as unpurified protein
- koff (human TNFα [1]): 0.00365 s⁻¹

B2: PMP3G2 (VHH)
VHH: AVQLVESGGGLVQPGDSLRLSCAASGRTFSDYSGYTYTVGWFRQAPGKEREFVARIYWSSGNTYYADSVKGRFTISRDIAKNTVDLLMNNLEPEDTAVYYCAARDGIPTSRSVESYNYWGQGTQVTVSS
notes: Tested as unpurified protein
- koff (human TNFα [1]): 0.0109 s⁻¹

B3: TNF15 (TNF2 HUM1) (VHH)
VHH: EVQLVESGGGLVQPGGSLRLSCAASGRTFSEPSGYTYTIGWFRQAPGKGREFVARIYWSSGLTYYADSVKGRFTISRDIAKNTVDLQMNSLKPEDTAVYYCAARDGIPTSRSVGSYNYWGQGTQVTVSS
notes: Humanised TNF2, first round
- EC50 in nM (mean); L929s + Act D cytotoxicity assay, human TNFa @ 0.5 ng/ml (human TNFα [2]): 1.67 nM
- EC50 in nM (mean); L929s + Act D cytotoxicity assay, human TNFa @ 0.5 ng/ml (human TNFα [3]): 5.9 nM
- koff (human TNFα [4]): 0.00054 s⁻¹

B4: TNF16 (TNF2 HUM2) (VHH)
VHH: EVQLVESGGGLVQPGGSLRLSCAASGFTFSEPSGYTYTIGWFRQAPGKGREFVARIYWSSGLTYYADSVKGRFTISRDIAKNTVDLQMNSLKPEDTAVYYCAARDGIPTSRSVGSYNYWGQGTQVTVSS
notes: Humanised TNF2, first round
- EC50 in nM (mean); L929s + Act D cytotoxicity assay, human TNFa @ 0.5 ng/ml (human TNFα [2]): 1.9 nM
- EC50 in nM (mean); L929s + Act D cytotoxicity assay, human TNFa @ 0.5 ng/ml (human TNFα [3]): 2.42 nM
- koff (human TNFα [4]): 0.00066 s⁻¹

B5: TNF17 (TNF2 HUM3) (VHH)
VHH: EVQLVESGGGLVQPGGSLRLSCAASGRTFSEPSGYTYTIGWFRQAPGKGREFVARIYWSSGLTYYADSVKGRFTISRDNAKNTVDLQMNSLKPEDTAVYYCAARDGIPTSRSVGSYNYWGQGTQVTVSS
notes: Humanised TNF2, first round
- EC50 in nM (mean); L929s + Act D cytotoxicity assay, human TNFa @ 0.5 ng/ml (human TNFα [2]): 3.02 nM
- EC50 in nM (mean); L929s + Act D cytotoxicity assay, human TNFa @ 0.5 ng/ml (human TNFα [3]): 7.55 nM
- koff (human TNFα [4]): 0.0011 s⁻¹

B6: TNF18 (TNF2 HUM4) (VHH)
VHH: EVQLVESGGGLVQPGGSLRLSCAASGRTFSEPSGYTYTIGWFRQAPGKGREFVARIYWSSGLTYYADSVKGRFTISRDIAKNTVDLQMNSLRPEDTAVYYCAARDGIPTSRSVGSYNYWGQGTQVTVSS
notes: Humanised TNF2, first round
- EC50 in nM (mean); L929s + Act D cytotoxicity assay, human TNFa @ 0.5 ng/ml (human TNFα [2]): 1.51 nM
- EC50 in nM (mean); L929s + Act D cytotoxicity assay, human TNFa @ 0.5 ng/ml (human TNFα [3]): 3.13 nM
- koff (human TNFα [4]): 0.0007 s⁻¹

B7: TNF19 (TNF2 HUM5) (VHH)
VHH: EVQLVESGGGLVQPGGSLRLSCAASGRTFSEPSGYTYTIGWFRQAPGKGREFVARIYWSSGLTYYADSVKGRFTISRDIAKNTVDLQMNSLKPEDTAVYYCAARDGIPTSRSVGSYNYWGQGTLVTVSS
notes: Humanised TNF2, first round
- EC50 in nM (mean); L929s + Act D cytotoxicity assay, human TNFa @ 0.5 ng/ml (human TNFα [2]): 2.19 nM
- EC50 in nM (mean); L929s + Act D cytotoxicity assay, human TNFa @ 0.5 ng/ml (human TNFα [3]): 7.37 nM
- koff (human TNFα [4]): 0.00079 s⁻¹

B8: TNF31 (TNF2 HUM1) (VHH)
VHH: EVQLVESGGGLVQPGGSLRLSCAASGFTFSEPSGYTYTIGWFRQAPGKGREFVARIYWSSGLTYYADSVKGRFTISRDIAKNTVDLQMNSLRPEDTAVYYCAARDGIPTSRSVGSYNYWGQGTQVTVSS
notes: Humanised TNF2, second round; tags not restated
- EC50 in nM (mean); L929s + Act D cytotoxicity assay, human TNFa @ 0.5 ng/ml (human TNFα [3]): 2.19 nM
- koff (human TNFα [5]): 0.00063 s⁻¹
- EC50 (read off the curve) (human TNFα [6]): ~10 ng/mL

B9: TNF32 (TNF2 HUM2) (VHH)
VHH: EVQLVESGGGLVQPGGSLRLSCAASGFTFSEPSGYTYTIGWFRQAPGKGREFVARIYWSSGLTYYADSVKGRFTISRDIAKNTVDLQMNSLRPEDTAVYYCAARDGIPTSRSVGSYNYWGQGTLVTVSS
notes: as for B8
- EC50 in nM (mean); L929s + Act D cytotoxicity assay, human TNFa @ 0.5 ng/ml (human TNFα [3]): 2.51 nM
- koff (human TNFα [5]): 0.00084 s⁻¹
- EC50 (read off the curve) (human TNFα [6]): ~10 ng/mL

B10: TNF20 (TNF3 HUM1) (VHH)
VHH: EVQLVESGGGLVQPGGSLRLSCAASGRSLSNYYMGWFRQAPGKGRELLGNISWRGYNIYYKDSVKGRFTISRDDSKNTIYLQMNSLKPEDTAVYYCAASILPLSDDPGWNTYWGQGTQVTVSS
- EC50 in nM (mean); L929s + Act D cytotoxicity assay, human TNFa @ 0.5 ng/ml (human TNFα [2]): 0.38 nM
- EC50 in nM (mean); L929s + Act D cytotoxicity assay, human TNFa @ 0.5 ng/ml (human TNFα [3]): 0.38 nM

B11: TNF21 (TNF3 HUM2) (VHH)
VHH: EVQLVESGGGLVQPGGSLRLSCAASGFTFSNYYMGWFRQAPGKGRELLGNISWRGYNIYYKDSVKGRFTISRDDSKNTIYLQMNSLKPEDTAVYYCAASILPLSDDPGWNTYWGQGTQVTVSS
- EC50 in nM (mean); L929s + Act D cytotoxicity assay, human TNFa @ 0.5 ng/ml (human TNFα [2]): 0.889 nM
- EC50 in nM (mean); L929s + Act D cytotoxicity assay, human TNFa @ 0.5 ng/ml (human TNFα [3]): 0.889 nM

B12: TNF22 (TNF3 HUM3) (VHH)
VHH: EVQLVESGGGLVQPGGSLRLSCAASGRSLSNYYMGWFRQAPGKGRELLGNISWRGYNIYYKDSVKGRFTISRDDSKNTIYLQMNSLKTEDTAVYYCAASILPLSDDPGWNTYWGQGTQVTVSS
- EC50 in nM (mean); L929s + Act D cytotoxicity assay, human TNFa @ 0.5 ng/ml (human TNFα [2]): 0.303 nM
- EC50 in nM (mean); L929s + Act D cytotoxicity assay, human TNFa @ 0.5 ng/ml (human TNFα [3]): 0.303 nM

B13: TNF23 (TNF3 HUM4) (VHH)
VHH: EVQLVESGGGLVQPGGSLRLSCAASGRSLSNYYMGWFRQAPGKGRELLGNISWRGYNIYYKDSVKGRFTISRDDSKNTIYLQMNSLKPEDTAVYYCAASILPLSDDPGWNTYWGQGTLVTVSS
- EC50 in nM (mean); L929s + Act D cytotoxicity assay, human TNFa @ 0.5 ng/ml (human TNFα [2]): 0.3 nM
- EC50 in nM (mean); L929s + Act D cytotoxicity assay, human TNFa @ 0.5 ng/ml (human TNFα [3]): 0.3 nM

B14: TNF2-GS9-TNF2 (TNF5) (VHH)
chain: QVQLVESGGGLVQAGGSLRLSCAASGRTFSEPSGYTYTIGWFRQAPGKEREFVARIYWSSGLTYYADSVKGRFTISRDIAKNTVDLLMNSLKPEDTAVYYCAARDGIPTSRSVGSYNYWGQGTQVTVSSGGGGSGGGSQVQLVESGGGLVQAGGSLRLSCAASGRTFSEPSGYTYTIGWFRQAPGKEREFVARIYWSSGLTYYADSVKGRFTISRDIAKNTVDLLMNSLKPEDTAVYYCAARDGIPTSRSVGSYNYWGQGTQVTVSS
notes: Bivalent nanobody, 9 AA GlySer linker
- EC50 in nM (mean); L929s + Act D cytotoxicity assay, human TNFa @ 0.5 ng/ml (human TNFα [7]): 0.02 nM
- EC50 in nM (mean); L929s + Act D cytotoxicity assay, rhesus TNFa @ 0.5 ng/ml (rhesus TNFα): 35 nM
- EC50 in nM; alphaKYM cell assay (10000 c/w), human TNFa @ 1 ng/ml (human TNFα [8]): 0.008 nM
- IC50 (human TNFα [9]): 6.3 ng/mL

B15: TNF33 (TNF3 HUM1) (VHH)
VHH: EVQLVESGGGLVQPGGSLRLSCAASGRSLSNYYMGWFRQAPGKGRELLGNISWRGYNIYYKDSVKGRFTISRDDSKNTIYLQMNSLRPEDTAVYYCAASILPLSDDPGWNTYWGQGTLVTVSS
- EC50 in nM (mean); L929s + Act D cytotoxicity assay, human TNFa @ 0.5 ng/ml (human TNFα [3]): 0.3 nM

B16: PMP6B4 (VHH)
VHH: EVQLVESGGGLVQEGGSLRLACAASERIWDINLLGWYRQGPGNERELVATITVGDSTSYADSVKGRFTISRDYDKNTLYLQMNSLRPEDTGLYYCKIRRTWHSELWGQGTQVTVSS
notes: Class C serum albumin nanobody; tested as unpurified protein
- binding result (human serum albumin): binds
- binding result (mouse serum albumin): binds
- binding result (rhesus serum albumin): binds

B17: PMP6C1 (VHH)
VHH: AVQLVDSGGGLVQPGGSLRLSCAASGFSFGSFGMSWVRQYPGKEPEWVSSINGRGDDTRYADSVKGRFSISRDNAKNTLYLQMNSLKPEDTAEYYCTIGRSVSRSRTQGTQVTVSS
notes: Class B serum albumin nanobody; tested as unpurified protein
- binding result (human serum albumin): binds
- binding result (mouse serum albumin): binds
- binding result (rhesus serum albumin): binds

B18: PMP6 G8 (VHH)
VHH: AVQLVESGGGLVQPGGSLRLTCTASGFTFRSFGMSWVRQAPGKDQEWVSAISADSSTKNYADSVKGRFTISRDNAKKMLYLEMNSLKPEDTAVYYCVIGRGSPSSPGTQVTVSS
notes: serum albumin nanobody, class A
- binding result (human serum albumin): binds
- binding result (mouse serum albumin): binds
- binding result (rhesus serum albumin): binds

B19: PMP6 A5 (VHH)
VHH: QVQLAESGGGLVQPGGSLRLTCTASGFTFGSFGMSWVRQAPGEGLEWVSAISADSSDKRYADSVKGRFTISRDNAKKMLYLEMNSLKSEDTAVYYCVIGRGSPASQGTQVTVSS
notes: as for B18
- binding result (human serum albumin): binds
- binding result (mouse serum albumin): binds
- binding result (rhesus serum albumin): binds

B20: PMP6 G7 (VHH)
VHH: QVQLVESGGGLVQPGGSLRLSCAASGFTFSNYWMYWVRVAPGKGLERISRDISTGGGYSYYADSVKGRFTISRDNAKNTLYLQMNSLKPEDTALYYCAKDREAQVDTLDFDYRGQGTQVTVSS
notes: serum albumin nanobody, class D
- binding result (human serum albumin): binds
- binding result (rhesus serum albumin): binds

B21: PMP1G11 (VHH)
VHH: QVQLQESGGGMVQPGGSLRLSCAASGFDFGVSWMYWVRQAPGKGLEWVSEINTNGLITKYPDSVKGRFTISRDNAKTTLYLQMNSLKPEDTALYYCARSPSGSFRGQGTQVTVSS
notes: Tested as unpurified protein
- koff (human TNFα [1]): 0.00115 s⁻¹

B22: PMP1H6 (VHH)
VHH: EVQLVESGGGLVQPGGSLRLSCATSGFDFSVSWMYWVRQAPGKGLEWVSEINTNGLITKYVDSVKGRFTISRDNAKNTLYLQMDSLIPEDTALYYCARSPSGSFRGQGTQVTVSS
notes: Tested as unpurified protein
- koff (human TNFα [1]): 0.00214 s⁻¹
